{"source": "paper PMC7467306", "key": {"[1]": {"target": "human insulin receptor isoform A (human) (UniProt P06213)", "sequence (P06213 other isoform, or with tags, fused parts or gaps)": "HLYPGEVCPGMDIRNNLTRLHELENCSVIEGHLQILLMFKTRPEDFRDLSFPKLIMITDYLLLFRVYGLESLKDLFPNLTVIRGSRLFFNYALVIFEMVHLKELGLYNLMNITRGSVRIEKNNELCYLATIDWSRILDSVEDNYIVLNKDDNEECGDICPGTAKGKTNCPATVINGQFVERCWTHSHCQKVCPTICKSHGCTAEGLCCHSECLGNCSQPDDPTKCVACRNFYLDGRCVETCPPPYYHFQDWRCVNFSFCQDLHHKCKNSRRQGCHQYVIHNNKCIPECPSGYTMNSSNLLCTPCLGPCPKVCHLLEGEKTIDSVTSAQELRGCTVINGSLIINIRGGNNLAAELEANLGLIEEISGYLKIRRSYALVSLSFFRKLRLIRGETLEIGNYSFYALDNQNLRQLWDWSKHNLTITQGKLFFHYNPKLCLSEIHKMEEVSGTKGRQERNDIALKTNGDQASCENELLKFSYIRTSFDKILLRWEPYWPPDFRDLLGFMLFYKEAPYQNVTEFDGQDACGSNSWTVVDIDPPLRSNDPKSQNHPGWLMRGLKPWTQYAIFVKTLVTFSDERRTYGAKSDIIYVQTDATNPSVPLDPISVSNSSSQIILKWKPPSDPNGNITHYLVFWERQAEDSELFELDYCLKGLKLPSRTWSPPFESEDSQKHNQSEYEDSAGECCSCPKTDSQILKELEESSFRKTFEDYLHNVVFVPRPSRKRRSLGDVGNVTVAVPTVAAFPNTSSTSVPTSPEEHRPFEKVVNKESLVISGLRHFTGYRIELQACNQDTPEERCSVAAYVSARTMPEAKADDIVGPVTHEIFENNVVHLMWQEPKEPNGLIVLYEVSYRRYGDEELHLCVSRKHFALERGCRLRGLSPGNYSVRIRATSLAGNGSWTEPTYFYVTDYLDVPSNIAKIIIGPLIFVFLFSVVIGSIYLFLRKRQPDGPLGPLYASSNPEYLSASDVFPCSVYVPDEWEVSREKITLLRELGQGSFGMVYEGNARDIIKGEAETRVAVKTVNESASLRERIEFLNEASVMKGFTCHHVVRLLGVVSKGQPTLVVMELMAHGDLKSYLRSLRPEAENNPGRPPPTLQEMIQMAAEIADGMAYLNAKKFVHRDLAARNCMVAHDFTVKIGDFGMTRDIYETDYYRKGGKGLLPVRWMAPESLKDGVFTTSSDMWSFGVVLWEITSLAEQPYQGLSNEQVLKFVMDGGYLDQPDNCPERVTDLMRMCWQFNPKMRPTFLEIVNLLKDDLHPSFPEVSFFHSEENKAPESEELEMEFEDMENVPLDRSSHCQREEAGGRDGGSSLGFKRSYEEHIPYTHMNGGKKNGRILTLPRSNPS", "experiment": "radioligand binding; competition with [125I]-monoiodotyrosyl-TyrA14-insulin on intact human IM-9 lymphocytes (human IR-A)"}, "[2]": {"target": "His-tagged domain 11 (D11) of human IGF2R (human) (UniProt P11717)", "sequence (P11717 1508-1651)": "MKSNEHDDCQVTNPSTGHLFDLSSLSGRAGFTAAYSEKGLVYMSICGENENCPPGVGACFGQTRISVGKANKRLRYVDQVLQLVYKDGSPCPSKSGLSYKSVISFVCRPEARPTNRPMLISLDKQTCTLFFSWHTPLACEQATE", "experiment": "radioligand binding; competition of unlabeled ligand (10^-12-10^-6 M) with [125I]-monoiodotyrosyl-Tyr2-IGF2 (43000 cpm, 0.02 nM) for D11 held in wells on iBodies; 16 h at 5 °C, HEPES binding buffer pH 7.6 with 1 % BSA; one-site fit with ligand depletion, Kd of the tracer set to 2 nM"}, "[3]": {"target": "human IGF-1 receptor (human) (UniProt P08069)", "experiment": "radioligand binding; competition with [125I]-monoiodotyrosyl-IGF1 on intact mouse fibroblasts transfected with human IGF-1R and with deleted mouse IGF-1R"}}, "note": "pKd: −log10 of the molar value.", "data": [{"substance": "Leu19-IGF2 analog (ligand)", "values": [{"measurement": "pKd", "setting": "[1]", "value": 8.14}, {"measurement": "pKd", "setting": "[2]", "value": 9.55}, {"measurement": "pKd", "setting": "[3]", "value": 8.96}]}]}
